Data: US20230059690A1 (CYTOMX THERAPEUTICS, published 2023)
Each block holds one binder with its values, some of them ahead of it.

Experiments:
human PSMA = target: T1, human PSMA (human, UniProt Q04609 44-750); test: FACS on hPSMA (FIG. 2)
T1 construct: also called hPSMA; Human PSMA dimer (DT1596)

mouse PSMA = mouse PSMA (mouse, UniProt O35409 45-752, limits assumed); test: ELISA, Biacore and/or FACS (not said which for mouse)
Sequence of mouse PSMA (O35409 45-752 limits assumed): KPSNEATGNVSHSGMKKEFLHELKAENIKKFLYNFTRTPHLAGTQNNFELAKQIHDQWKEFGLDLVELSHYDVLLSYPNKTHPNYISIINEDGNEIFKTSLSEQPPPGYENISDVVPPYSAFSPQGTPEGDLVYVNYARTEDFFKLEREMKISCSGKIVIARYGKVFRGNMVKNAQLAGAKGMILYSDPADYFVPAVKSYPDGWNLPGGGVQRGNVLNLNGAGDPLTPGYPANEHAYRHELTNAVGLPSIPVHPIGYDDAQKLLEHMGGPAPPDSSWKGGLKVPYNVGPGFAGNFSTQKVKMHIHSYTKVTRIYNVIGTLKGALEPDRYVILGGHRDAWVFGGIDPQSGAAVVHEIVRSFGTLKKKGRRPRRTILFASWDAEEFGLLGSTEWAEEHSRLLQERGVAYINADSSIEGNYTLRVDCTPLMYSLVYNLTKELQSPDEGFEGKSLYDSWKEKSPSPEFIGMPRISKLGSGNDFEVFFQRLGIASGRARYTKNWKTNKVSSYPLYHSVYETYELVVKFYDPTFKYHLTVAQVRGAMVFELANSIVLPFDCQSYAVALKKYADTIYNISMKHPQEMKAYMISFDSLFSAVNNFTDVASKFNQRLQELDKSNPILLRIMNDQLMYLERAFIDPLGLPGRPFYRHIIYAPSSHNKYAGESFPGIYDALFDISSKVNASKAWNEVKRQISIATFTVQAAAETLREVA

T1 sequence (Q04609 44-750 limits assumed): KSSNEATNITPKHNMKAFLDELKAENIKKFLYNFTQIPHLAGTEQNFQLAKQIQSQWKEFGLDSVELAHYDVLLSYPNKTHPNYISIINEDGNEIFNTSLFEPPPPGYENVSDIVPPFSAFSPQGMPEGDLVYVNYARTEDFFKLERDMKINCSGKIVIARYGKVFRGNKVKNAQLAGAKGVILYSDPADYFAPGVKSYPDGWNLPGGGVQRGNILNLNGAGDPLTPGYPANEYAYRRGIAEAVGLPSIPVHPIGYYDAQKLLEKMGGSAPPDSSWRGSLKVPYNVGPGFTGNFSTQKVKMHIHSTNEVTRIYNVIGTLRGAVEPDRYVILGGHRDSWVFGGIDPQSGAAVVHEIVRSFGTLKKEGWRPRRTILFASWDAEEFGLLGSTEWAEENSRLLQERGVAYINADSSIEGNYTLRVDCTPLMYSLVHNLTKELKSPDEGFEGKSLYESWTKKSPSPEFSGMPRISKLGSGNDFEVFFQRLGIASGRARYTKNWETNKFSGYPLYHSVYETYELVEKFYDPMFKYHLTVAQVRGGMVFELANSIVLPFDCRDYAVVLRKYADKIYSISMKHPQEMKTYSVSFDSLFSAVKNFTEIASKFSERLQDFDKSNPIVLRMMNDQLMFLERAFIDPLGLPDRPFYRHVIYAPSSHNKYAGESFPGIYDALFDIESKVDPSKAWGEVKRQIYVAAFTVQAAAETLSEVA

- binding result (human PSMA): binds
- binding result (mouse PSMA): no binding
B1: cHv75-2a11.G1(L328C)k (antibody, human IgG1, kappa, V domains shown)
VH: QVQLVESGGGVVQPGRSLRLSCAASGFTFSSYDMHWVRQAPGKGLEWVAVIWYDGSNKYYADSLKGRFTISRDNSKNTLYLQMNSLRAEDTAVYYCARVIAARTFYYYGMDVWGQGTTVTVSS
VL: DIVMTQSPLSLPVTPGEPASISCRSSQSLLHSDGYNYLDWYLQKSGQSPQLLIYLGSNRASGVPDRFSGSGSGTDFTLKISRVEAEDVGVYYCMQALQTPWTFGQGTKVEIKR
notes: also called [Ag]AB-4; cHv75-2a11.G1(1,328C)k

- binding result (human PSMA): binds
- binding result (mouse PSMA): no binding
B2: cHv75-2a7.G1(C99Y;L328C)k (antibody, V domains shown)
VH: EVQLVESGGGLVQPGGSLRLSCAASGITFSNYWMSWVRQAPGKGLEWVANIKKDGSEKFYVDSVKGRFTISRDNAKNSLYLQINSLRAEDTAMYYCAREIQLYLQHWGQGTLVTVSS
VL: DIQMTQSPSSVSASVGGRVTITCRASQGISNWLAWYQQKPGKAPKLLIYAASSLQSGVPSRFSGSGSGTDFTLTISNLQPEDFASYYCQQANSFPLTFGGGTKVEIKR
notes: also called [Ag]AB-5
